Data from the supplement of paper PMC7877785.
± gives the uncertainty stated by the source.

Test: self-splicing fitness, log relative to wild type (ln ratio); higher = more splicing; Tetrahymena group I intron in knt gene, E. coli kanamycin selection, DiMSum; sequences stand for … in CUCUCU…GGAGGGAAAAGUUAUCAGGCAUGCACCUGGUAGCUAGUCUUUAAACCAAUAGAUUGCAUCGGUUUAAAAGGCAAGACCGUCAAAUUGCGGGAAAGGGGUCAACAGCCGUUCAGUACCAAGUCUCAGGGGAAACUUUGAGAUGGCCUUGCAAAGGGUAUGGUAAUAAGCUGACGGACAUGGUCCUAACCACGCAGCCAAGUCCUAAGUCAACAGAUCUUCUGUUGAUAUGGAUGCAGUUCACAGACUAAAUGUCGGUCGGGGAAGAUGUAUUCUUCUCAUAAGAUAUAGUCGGACCUCUCCUUAAUGGGAGCUAGCGGAUGAAGUGAUGCAACACUGGAGCCGCUGGGAACUAAUUUGUAUGCGAAAGUAUAUUGAUUAGUUUUGGAGUACUCGUGGUCG
How it was run: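 Pooled colonies went to amplicon sequencing on an Illumina HiSeq 2500 after six replicate transformations. The plates were LB agar with 100 μg/mL carbenicillin, 50 μM IPTG and 0.2% rhamnose, with or without 25 μg/mL kanamycin, incubated overnight at 37°C or 30°C. The E. coli BL21(DE3) library had all eight P1ex-region intron nucleotides randomised, the intron placed in the knt kanamycin-resistance gene on pET-22b(+). DiMSum fitness is the error-weighted combination of replicate fold changes, kanamycin against none, normalised to wild type.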

In the case of CGUCAGCAAUAUUACGGAGG, the “self-splicing fitness (ln)” value (30 °C) is reported as -1.93 ± 0.1 and the “self-splicing fitness (ln)” value (37 °C) is reported as -1.57 ± 0.16.
In the case of ACACAGCAAUAUUACGAGGC, the “self-splicing fitness (ln)” value (30 °C) is reported as -3.49 ± 0.17 and the “self-splicing fitness (ln)” value (37 °C) is reported as -3.41 ± 0.29.
With CUUGAGCAAUAUUACGAAAA the “self-splicing fitness (ln)” value (30 °C) was -2.53 ± 0.38 and the “self-splicing fitness (ln)” value (37 °C) was -1.92 ± 0.38.
For GAACAGCAAUAUUACGCCCU, the “self-splicing fitness (ln)” value (30 °C) was -1.69 ± 0.42 and the “self-splicing fitness (ln)” value (37 °C) was 0.579 ± 0.37.
In the case of CCAGAGCAAUAUUACGCCGU, the “self-splicing fitness (ln)” value (30 °C) is reported as -4.04 ± 0.48.
In the case of UACUAGCAAUAUUACGAGCG, the “self-splicing fitness (ln)” value (30 °C) is reported as -0.191 ± 0.088 and the “self-splicing fitness (ln)” value (37 °C) is reported as 0.655 ± 0.11.
For GGAGAGCAAUAUUACGACUU, the “self-splicing fitness (ln)” value (30 °C) was -2.58 ± 0.19 and the “self-splicing fitness (ln)” value (37 °C) was -0.744 ± 0.16.
In the case of CUCUAGCAAUAUUACGGCUG, the “self-splicing fitness (ln)” value (30 °C) is reported as -2.87 ± 0.24 and the “self-splicing fitness (ln)” value (37 °C) is reported as -2.31 ± 0.25.
In the case of CAAGAGCAAUAUUACGAUAG, the “self-splicing fitness (ln)” value (30 °C) is reported as -1.53 ± 0.11 and the “self-splicing fitness (ln)” value (37 °C) is reported as -0.239 ± 0.13.
With UGAUAGCAAUAUUACGGGAA the “self-splicing fitness (ln)” value (30 °C) was -2.65 ± 0.2 and the “self-splicing fitness (ln)” value (37 °C) was -2.44 ± 0.21.
In the case of AGAGAGCAAUAUUACGCGCC, the “self-splicing fitness (ln)” value (30 °C) is reported as -2.58 ± 0.46.
In the case of AAUCAGCAAUAUUACGAAAU, the “self-splicing fitness (ln)” value (30 °C) is reported as -0.801 ± 0.066 and the “self-splicing fitness (ln)” value (37 °C) is reported as 0.368 ± 0.092.
For GGUAAGCAAUAUUACGUUGA, the “self-splicing fitness (ln)” value (30 °C) was -1.76 ± 0.21 and the “self-splicing fitness (ln)” value (37 °C) was -1.03 ± 0.15.
For UUUAAGCAAUAUUACGCAUC, the “self-splicing fitness (ln)” value (30 °C) was -2.75 ± 0.36 and the “self-splicing fitness (ln)” value (37 °C) was -2.25 ± 0.32.
In the case of UGCUAGCAAUAUUACGGUUA, the “self-splicing fitness (ln)” value (30 °C) is reported as -0.0068 ± 0.062 and the “self-splicing fitness (ln)” value (37 °C) is reported as -0.481 ± 0.068.
With AAGCAGCAAUAUUACGCUGG the “self-splicing fitness (ln)” value (30 °C) was -3.27 ± 0.21 and the “self-splicing fitness (ln)” value (37 °C) was -1.72 ± 0.15.
With AGCAAGCAAUAUUACGGAAA the “self-splicing fitness (ln)” value (30 °C) was -3.46 ± 0.18 and the “self-splicing fitness (ln)” value (37 °C) was -1.03 ± 0.11.
For GCGAAGCAAUAUUACGGGAC, the “self-splicing fitness (ln)” value (30 °C) was -1.66 ± 0.16 and the “self-splicing fitness (ln)” value (37 °C) was -2.2 ± 0.22.
In the case of CCGCAGCAAUAUUACGUACC, the “self-splicing fitness (ln)” value (30 °C) is reported as -3.7 ± 0.28 and the “self-splicing fitness (ln)” value (37 °C) is reported as -3.08 ± 0.47.
For GCCUAGCAAUAUUACGGUGG, the “self-splicing fitness (ln)” value (30 °C) was -4.34 ± 0.27 and the “self-splicing fitness (ln)” value (37 °C) was -2.86 ± 0.22.
In the case of AGCGAGCAAUAUUACGCGGG, the “self-splicing fitness (ln)” value (30 °C) is reported as -2.55 ± 0.24 and the “self-splicing fitness (ln)” value (37 °C) is reported as -2.54 ± 0.36.
For CACUAGCAAUAUUACGACUG, the “self-splicing fitness (ln)” value (30 °C) was -0.3 ± 0.053 and the “self-splicing fitness (ln)” value (37 °C) was -0.0818 ± 0.071.
With AACAAGCAAUAUUACGCGCA the “self-splicing fitness (ln)” value (30 °C) was -0.604 ± 0.066 and the “self-splicing fitness (ln)” value (37 °C) was 0.104 ± 0.094.
With UAGCAGCAAUAUUACGGCAG the “self-splicing fitness (ln)” value (30 °C) was -0.659 ± 0.1 and the “self-splicing fitness (ln)” value (37 °C) was 0.546 ± 0.13.
In the case of CGGGAGCAAUAUUACGCGCG, the “self-splicing fitness (ln)” value (37 °C) is reported as -0.901 ± 0.27.
In the case of UUGAAGCAAUAUUACGAGUC, the “self-splicing fitness (ln)” value (30 °C) is reported as -3.73 ± 0.32 and the “self-splicing fitness (ln)” value (37 °C) is reported as -2.8 ± 0.38.
In the case of ACAAAGCAAUAUUACGAAAA, the “self-splicing fitness (ln)” value (30 °C) is reported as -2.93 ± 0.25 and the “self-splicing fitness (ln)” value (37 °C) is reported as -2.42 ± 0.27.
For UCCCAGCAAUAUUACGAUGA, the “self-splicing fitness (ln)” value (30 °C) was -0.0138 ± 0.055 and the “self-splicing fitness (ln)” value (37 °C) was 0.23 ± 0.069.
In the case of AACUAGCAAUAUUACGCAUU, the “self-splicing fitness (ln)” value (30 °C) is reported as -2.19 ± 0.077 and the “self-splicing fitness (ln)” value (37 °C) is reported as -1.09 ± 0.073.
With AACGAGCAAUAUUACGUCUU the “self-splicing fitness (ln)” value (30 °C) was -1.33 ± 0.074 and the “self-splicing fitness (ln)” value (37 °C) was -0.279 ± 0.093.
With ACGCAGCAAUAUUACGUAUC the “self-splicing fitness (ln)” value (30 °C) was -2.47 ± 0.2 and the “self-splicing fitness (ln)” value (37 °C) was -1.18 ± 0.17.
With UGUUAGCAAUAUUACGGCUC the “self-splicing fitness (ln)” value (30 °C) was -2.55 ± 0.22 and the “self-splicing fitness (ln)” value (37 °C) was 0.0795 ± 0.15.
For UUGUAGCAAUAUUACGUAGA, the “self-splicing fitness (ln)” value (30 °C) was -2.75 ± 0.13 and the “self-splicing fitness (ln)” value (37 °C) was -1.23 ± 0.12.
In the case of AGAGAGCAAUAUUACGUAAU, the “self-splicing fitness (ln)” value (30 °C) is reported as -4.18 ± 0.33 and the “self-splicing fitness (ln)” value (37 °C) is reported as -2.81 ± 0.34.
For UAUUAGCAAUAUUACGAACG, the “self-splicing fitness (ln)” value (30 °C) was -0.156 ± 0.12 and the “self-splicing fitness (ln)” value (37 °C) was 0.194 ± 0.14.
With ACAAAGCAAUAUUACGGAAG the “self-splicing fitness (ln)” value (30 °C) was -2.47 ± 0.091 and the “self-splicing fitness (ln)” value (37 °C) was -1.61 ± 0.11.
In the case of CCUCAGCAAUAUUACGCUUA, the “self-splicing fitness (ln)” value (30 °C) is reported as -4.1 ± 0.3 and the “self-splicing fitness (ln)” value (37 °C) is reported as -2.11 ± 0.16.
With GUAAAGCAAUAUUACGGGCG the “self-splicing fitness (ln)” value (30 °C) was -0.457 ± 0.12 and the “self-splicing fitness (ln)” value (37 °C) was -0.386 ± 0.12.
